From paper PMC10581125 come the findings set out here.

This experiment concerns the target Klebsiella phage GH-K3-derived depolymerase Depo32 (Klebsiella phage GH-K3). Briefly: cryo-EM structure; Depo32 purified by size exclusion chromatography, 0.5-1.0 mg/mL, on glow-discharged C-flat carbon grids; 2.46 Å nonsymmetrized and 2.32 Å C3-symmetrized maps; homotrimer.

As usually defined, the stoichiometry N is a count of units in the complex or per binding partner. As for “Klebsiella phage GH-K3-derived depolymerase Depo32 (enzyme)”, the stoichiometry N was 3.
